# According to the supplement of paper PMC10065799, “High-throughput profiling of sequence recognition by tyrosine kinases and SH2 domains using bacterial peptide display” (eLife, 2023):
# Experiments:
# [1] = tested on: AncSZ; experiment: phosphorylation enrichment, bacterial display (enrichment ratio); higher = better substrate or ligand; peptides without Tyr show the background
# [2] = target: EPHB1 (UniProt P54762); experiment: as above
# [3] = target: EPHB2 (UniProt P29323); experiment: as above
# [4] = target: FGFR1 (UniProt P11362); experiment: as above
# [5] = target: FGFR3 (UniProt P22607); experiment: as above
# [6] = tested on: Fer (mouse); experiment: as above
# [7] = target: Fes (UniProt P07332); experiment: as above
# [8] = target: Fyn (UniProt P06241); experiment: as above
# [9] = target: Hck (UniProt P08631); experiment: as above
# [10] = target: Jak2 (UniProt O60674); experiment: as above
# [11] = target: MERTK (UniProt Q12866); experiment: as above
# [12] = tested on: c-Abl (mouse); experiment: as above
# [13] = tested on: c-Src; experiment: as above
# [14] = target: Grb2 SH2 (UniProt P62993); experiment: SH2 binding enrichment of the phosphorylated peptide, bacterial display (enrichment ratio); higher = better substrate or ligand; peptides without Tyr show the background
# [15] = target: SHP2-C SH2; experiment: as above
# [16] = target: c-Src SH2; experiment: as above
# 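For SH2 binding enrichment of the phosphorylated peptide, bacterial display in this document: peptide library displayed on the E. coli surface as eCPX fusions, selected cells deep-sequenced, score is each peptide's frequency after selection divided by its frequency in the input.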
# 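For phosphorylation enrichment, bacterial display in this document: 11-residue human phosphosite peptides and single-mutation variants displayed on the E. coli surface, counted by deep sequencing, each peptide's frequency after selection divided by its frequency in the unselected input library; frequency after pTyr selection over input frequency; kinase dosed for 20-30% of maximal phosphorylation in three min.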
# Chain of Hck (P08631 whole entry, looked up): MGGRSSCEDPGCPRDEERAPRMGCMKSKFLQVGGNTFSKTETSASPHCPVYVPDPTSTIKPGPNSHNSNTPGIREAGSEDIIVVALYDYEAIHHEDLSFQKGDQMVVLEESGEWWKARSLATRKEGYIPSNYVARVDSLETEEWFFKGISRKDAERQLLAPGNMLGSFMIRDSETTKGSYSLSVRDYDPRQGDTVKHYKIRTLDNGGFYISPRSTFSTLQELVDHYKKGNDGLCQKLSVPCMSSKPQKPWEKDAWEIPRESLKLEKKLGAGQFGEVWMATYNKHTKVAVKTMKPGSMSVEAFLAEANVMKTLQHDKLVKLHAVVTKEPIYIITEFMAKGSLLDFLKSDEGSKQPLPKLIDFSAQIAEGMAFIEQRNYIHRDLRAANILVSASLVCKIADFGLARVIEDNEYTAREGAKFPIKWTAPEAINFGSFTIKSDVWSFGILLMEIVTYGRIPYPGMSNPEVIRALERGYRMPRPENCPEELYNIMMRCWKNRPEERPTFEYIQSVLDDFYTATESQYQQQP
# Chain of MERTK (Q12866 whole entry, looked up): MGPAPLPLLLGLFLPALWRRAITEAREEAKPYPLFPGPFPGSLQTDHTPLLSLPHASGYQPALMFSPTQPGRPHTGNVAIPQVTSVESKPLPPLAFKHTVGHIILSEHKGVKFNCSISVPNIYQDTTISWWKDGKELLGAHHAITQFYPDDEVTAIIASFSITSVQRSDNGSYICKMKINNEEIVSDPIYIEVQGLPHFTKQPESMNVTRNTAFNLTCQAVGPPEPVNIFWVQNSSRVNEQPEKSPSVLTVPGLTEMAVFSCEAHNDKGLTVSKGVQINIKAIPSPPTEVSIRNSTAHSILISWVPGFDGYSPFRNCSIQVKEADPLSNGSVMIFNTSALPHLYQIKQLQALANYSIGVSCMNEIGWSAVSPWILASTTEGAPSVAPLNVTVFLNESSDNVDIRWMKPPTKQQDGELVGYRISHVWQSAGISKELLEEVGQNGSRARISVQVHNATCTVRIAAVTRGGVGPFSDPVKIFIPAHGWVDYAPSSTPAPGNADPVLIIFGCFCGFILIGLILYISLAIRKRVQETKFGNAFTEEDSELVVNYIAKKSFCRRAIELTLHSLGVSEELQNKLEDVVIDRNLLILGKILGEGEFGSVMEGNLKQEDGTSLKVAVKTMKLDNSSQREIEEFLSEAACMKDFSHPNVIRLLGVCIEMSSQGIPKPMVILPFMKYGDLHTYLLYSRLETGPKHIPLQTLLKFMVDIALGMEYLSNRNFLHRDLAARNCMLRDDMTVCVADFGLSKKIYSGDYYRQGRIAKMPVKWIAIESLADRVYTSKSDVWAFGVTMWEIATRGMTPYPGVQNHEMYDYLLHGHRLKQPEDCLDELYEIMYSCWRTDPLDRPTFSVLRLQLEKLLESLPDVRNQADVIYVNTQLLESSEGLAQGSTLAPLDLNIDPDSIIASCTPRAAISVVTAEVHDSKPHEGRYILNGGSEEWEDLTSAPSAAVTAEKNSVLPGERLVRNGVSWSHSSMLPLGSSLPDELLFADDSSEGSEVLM
# Chain of EPHB1 (P54762 whole entry, looked up): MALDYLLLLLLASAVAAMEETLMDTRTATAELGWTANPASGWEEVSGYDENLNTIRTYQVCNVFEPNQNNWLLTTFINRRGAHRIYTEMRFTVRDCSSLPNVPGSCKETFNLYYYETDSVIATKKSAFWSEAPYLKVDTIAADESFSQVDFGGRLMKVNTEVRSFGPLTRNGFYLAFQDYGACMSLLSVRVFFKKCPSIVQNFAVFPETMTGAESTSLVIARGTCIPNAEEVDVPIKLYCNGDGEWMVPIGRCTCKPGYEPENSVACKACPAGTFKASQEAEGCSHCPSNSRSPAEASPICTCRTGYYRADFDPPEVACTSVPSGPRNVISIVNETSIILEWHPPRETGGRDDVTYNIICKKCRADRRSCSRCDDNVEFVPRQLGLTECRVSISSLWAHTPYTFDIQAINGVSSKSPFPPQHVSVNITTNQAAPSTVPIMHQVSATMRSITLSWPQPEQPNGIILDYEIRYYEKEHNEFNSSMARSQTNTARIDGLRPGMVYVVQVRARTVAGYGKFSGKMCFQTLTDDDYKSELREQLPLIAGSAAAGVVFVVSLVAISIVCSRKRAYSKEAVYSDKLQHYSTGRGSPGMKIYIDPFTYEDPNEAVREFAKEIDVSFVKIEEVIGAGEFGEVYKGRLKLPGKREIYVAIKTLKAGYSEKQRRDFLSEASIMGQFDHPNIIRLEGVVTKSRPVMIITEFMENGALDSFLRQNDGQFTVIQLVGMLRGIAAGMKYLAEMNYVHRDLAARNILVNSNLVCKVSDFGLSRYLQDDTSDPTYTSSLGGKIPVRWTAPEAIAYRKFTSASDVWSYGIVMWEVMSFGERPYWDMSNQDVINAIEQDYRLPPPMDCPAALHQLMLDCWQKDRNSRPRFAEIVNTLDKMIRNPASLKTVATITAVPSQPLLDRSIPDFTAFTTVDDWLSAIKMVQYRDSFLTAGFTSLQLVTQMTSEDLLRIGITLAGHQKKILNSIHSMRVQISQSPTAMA
# Chain of Jak2 (O60674 whole entry, looked up): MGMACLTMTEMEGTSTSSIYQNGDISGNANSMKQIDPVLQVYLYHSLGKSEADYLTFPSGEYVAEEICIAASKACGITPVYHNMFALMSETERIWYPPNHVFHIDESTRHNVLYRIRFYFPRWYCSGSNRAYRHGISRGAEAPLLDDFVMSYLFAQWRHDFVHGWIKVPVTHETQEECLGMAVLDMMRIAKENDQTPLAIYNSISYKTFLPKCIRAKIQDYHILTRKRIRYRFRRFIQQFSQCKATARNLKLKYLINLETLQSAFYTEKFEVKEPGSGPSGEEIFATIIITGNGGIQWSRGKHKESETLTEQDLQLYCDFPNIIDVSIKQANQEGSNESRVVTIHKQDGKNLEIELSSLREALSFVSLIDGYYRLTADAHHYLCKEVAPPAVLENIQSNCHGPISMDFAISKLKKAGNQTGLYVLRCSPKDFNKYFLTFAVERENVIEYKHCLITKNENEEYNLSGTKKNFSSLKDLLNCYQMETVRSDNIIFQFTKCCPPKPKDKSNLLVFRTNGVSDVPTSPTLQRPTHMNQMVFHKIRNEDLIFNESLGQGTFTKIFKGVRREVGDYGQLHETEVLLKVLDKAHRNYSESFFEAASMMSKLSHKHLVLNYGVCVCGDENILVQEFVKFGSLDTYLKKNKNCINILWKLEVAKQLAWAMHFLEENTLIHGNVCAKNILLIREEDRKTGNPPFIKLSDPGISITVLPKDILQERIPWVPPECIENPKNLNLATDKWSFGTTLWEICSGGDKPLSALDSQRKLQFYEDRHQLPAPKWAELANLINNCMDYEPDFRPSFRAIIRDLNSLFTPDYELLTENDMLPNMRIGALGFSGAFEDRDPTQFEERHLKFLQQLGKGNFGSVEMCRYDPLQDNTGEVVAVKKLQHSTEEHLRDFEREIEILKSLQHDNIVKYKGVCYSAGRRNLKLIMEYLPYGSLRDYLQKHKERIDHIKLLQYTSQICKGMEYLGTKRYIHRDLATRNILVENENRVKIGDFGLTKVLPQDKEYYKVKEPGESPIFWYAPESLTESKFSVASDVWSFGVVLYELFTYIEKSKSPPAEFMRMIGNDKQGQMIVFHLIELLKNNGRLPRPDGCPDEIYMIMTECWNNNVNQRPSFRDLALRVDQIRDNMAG
# Chain of FGFR1 (P11362 whole entry, looked up): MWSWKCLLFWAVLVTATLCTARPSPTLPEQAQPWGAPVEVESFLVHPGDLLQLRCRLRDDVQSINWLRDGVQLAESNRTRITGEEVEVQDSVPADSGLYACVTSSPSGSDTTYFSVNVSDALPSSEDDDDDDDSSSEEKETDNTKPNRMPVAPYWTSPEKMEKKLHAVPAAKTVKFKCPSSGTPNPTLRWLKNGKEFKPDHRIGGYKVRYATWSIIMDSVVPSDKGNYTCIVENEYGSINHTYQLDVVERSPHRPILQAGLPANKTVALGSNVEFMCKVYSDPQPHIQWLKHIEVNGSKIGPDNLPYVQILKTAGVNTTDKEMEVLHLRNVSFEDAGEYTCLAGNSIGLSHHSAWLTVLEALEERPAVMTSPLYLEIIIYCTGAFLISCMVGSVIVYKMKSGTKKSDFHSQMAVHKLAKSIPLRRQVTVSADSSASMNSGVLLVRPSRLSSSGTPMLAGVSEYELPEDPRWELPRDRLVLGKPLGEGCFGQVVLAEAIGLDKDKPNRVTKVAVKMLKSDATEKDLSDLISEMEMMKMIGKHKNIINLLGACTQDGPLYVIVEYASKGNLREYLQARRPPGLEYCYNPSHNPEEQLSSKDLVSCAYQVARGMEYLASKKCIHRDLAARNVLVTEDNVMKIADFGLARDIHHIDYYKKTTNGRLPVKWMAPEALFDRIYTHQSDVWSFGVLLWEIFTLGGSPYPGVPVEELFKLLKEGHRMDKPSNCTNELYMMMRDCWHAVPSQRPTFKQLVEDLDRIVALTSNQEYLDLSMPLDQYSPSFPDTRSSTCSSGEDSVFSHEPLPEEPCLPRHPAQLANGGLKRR
# Chain of Fyn (P06241 whole entry, looked up): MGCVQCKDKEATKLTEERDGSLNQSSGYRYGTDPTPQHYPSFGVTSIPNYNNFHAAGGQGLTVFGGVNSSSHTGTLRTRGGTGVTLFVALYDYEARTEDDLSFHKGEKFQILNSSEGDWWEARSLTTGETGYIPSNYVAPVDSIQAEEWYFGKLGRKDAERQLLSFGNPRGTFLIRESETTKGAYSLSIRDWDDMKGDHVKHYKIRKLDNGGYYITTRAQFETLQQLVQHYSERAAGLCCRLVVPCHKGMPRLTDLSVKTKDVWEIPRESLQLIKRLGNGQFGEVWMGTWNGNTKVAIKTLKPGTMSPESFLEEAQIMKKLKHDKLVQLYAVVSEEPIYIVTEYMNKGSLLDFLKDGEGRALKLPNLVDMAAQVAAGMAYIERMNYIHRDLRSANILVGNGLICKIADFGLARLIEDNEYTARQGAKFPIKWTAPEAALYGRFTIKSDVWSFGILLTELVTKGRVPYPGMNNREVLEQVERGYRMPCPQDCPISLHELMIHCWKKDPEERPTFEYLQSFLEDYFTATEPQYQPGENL
SH2 binding enrichment [14],SH2 binding enrichment [15],SH2 binding enrichment [16],Sequence,phosphorylation enrichment [1],phosphorylation enrichment [2],phosphorylation enrichment [3],phosphorylation enrichment [4],phosphorylation enrichment [5],phosphorylation enrichment [6],phosphorylation enrichment [7],phosphorylation enrichment [8],phosphorylation enrichment [9],phosphorylation enrichment [10],phosphorylation enrichment [11],phosphorylation enrichment [12],phosphorylation enrichment [13]
0.7,0.619,0.56,YSQNICIQNRN [PKP2_Y631_Y631C],0.874,0.529,0.503,0.524,0.641,0.498,1.01,0.415,0.501,0.777,0.49,0.663,0.432
0.775,0.584,0.494,AEEEIYGIFGA [SRCtide_2014],2.1,1.36,1.36,0.615,0.89,3,1.31,5.63,4.39,1.35,3.88,3.69,4.49
1.21,1.39,0.736,NTQRPYYKGGG [TYROBP_Y111],0.516,0.331,0.383,0.511,0.421,0.411,0.592,0.305,0.431,0.601,0.415,0.427,0.432
0.93,0.564,1.06,QDDYSYPSRQM [LDLR_Y847_G844D],13.3,3.54,7.79,2.04,1.66,1.66,2.17,1.46,1.02,1.74,1.13,4.49,1.02
0.644,0.605,0.367,SVTCTYSPAHN [TP53_Y126_L130H],1.37,0.773,0.705,0.502,0.865,0.799,1.59,0.497,0.517,2.08,0.663,1.17,0.802
0.664,0.646,0.463,SVTCTYSPAFN [TP53_Y126_L130F],1.35,0.8,0.59,0.49,0.897,0.553,1.51,0.518,0.592,1.31,0.418,1,0.66
0.852,0.813,0.459,ICTVDYLLRLQ [RYR1_Y3921],1.21,0.659,0.618,0.529,0.733,0.736,1.41,0.539,0.542,1.12,0.428,0.966,0.444
0.753,0.54,1.57,NNKKDYYDMYE [SLC26A3_Y526_K521N],1.47,2.03,1.52,8.57,6.01,0.544,1.04,0.792,0.728,0.735,0.483,0.537,0.591
0.748,0.693,0.433,NESVDYRATFP [MET_Y1003],0.681,0.421,0.463,0.427,0.489,0.454,0.802,0.472,0.484,0.749,0.422,0.591,0.418
3.35,0.917,2.25,VLNDAYENLTR [SYNE2_Y3255],1.08,0.531,0.759,0.559,0.761,0.581,0.859,0.524,0.521,0.665,0.379,0.605,0.391
1.46,1.2,0.992,PVKTPYSLKRW [BMPR2_Y979_R974P],1.04,0.499,0.84,0.653,0.789,0.609,1.49,0.63,0.427,1.36,0.586,1.14,0.987
0.748,0.714,0.767,YSKTQYNQVPS [CXADR_Y318],0.473,0.351,0.318,0.393,0.429,0.386,0.522,0.461,0.343,0.502,0.467,0.729,0.387
0.753,0.8,0.609,EVASVYQSYQP [MAVS_Y92],0.864,0.54,0.622,0.518,0.568,2.7,0.802,9.7,7.42,0.661,0.569,1.14,7.09
0.85,1.1,0.624,PLQNTYNFNVL [SLC4A1_Y553_K551N_YF],0.891,0.798,0.756,0.803,0.616,0.812,1.43,1.67,0.57,0.959,0.634,0.893,2.52
0.893,0.853,0.479,FTGNTYRVGDT [FN1_Y106_YF],0.634,0.382,0.464,0.372,0.472,0.396,0.667,0.424,0.293,0.499,0.394,0.479,0.476
0.821,0.517,0.423,PEADKYRLPFA [FGG_Y300_T303P_YF],0.988,0.61,0.645,0.544,0.657,0.512,0.717,0.614,0.648,0.731,0.442,0.634,0.614
10.3,0.88,4.76,VNYGAYINDFK [GLB1_Y488],0.773,0.709,1.22,0.469,0.593,0.402,0.86,0.912,0.454,0.665,0.373,0.515,0.761

SH2 binding enrichment [14],SH2 binding enrichment [15],SH2 binding enrichment [16],Sequence,phosphorylation enrichment [1],phosphorylation enrichment [2],phosphorylation enrichment [3],phosphorylation enrichment [4],phosphorylation enrichment [5],phosphorylation enrichment [6],phosphorylation enrichment [7],phosphorylation enrichment [8],phosphorylation enrichment [9],phosphorylation enrichment [10],phosphorylation enrichment [11],phosphorylation enrichment [12],phosphorylation enrichment [13]
0.791,0.493,1.34,KRYRIYHLATS [BRCA2_Y3009],0.564,0.456,0.461,0.487,0.509,0.313,0.491,0.445,0.432,0.336,0.322,0.402,0.508
0.664,0.582,0.451,FEGAIYRKDVG [GART_Y417],0.645,0.332,0.312,0.347,0.539,0.662,0.707,0.405,0.514,0.467,0.288,0.457,0.393
1.05,20.4,1.65,NGSKAYAFVHF [PABPC5_Y147_G146A_YF],0.97,0.586,0.606,0.649,0.763,0.769,1.02,0.442,0.531,0.796,0.71,0.618,0.372
0.638,0.428,0.433,RIGRKCKKVRF [F8_Y442_Y442C],0.608,0.567,0.556,1.67,0.572,0.363,0.595,0.55,0.52,0.654,0.549,0.524,0.794
0.999,1.03,2.08,SSFSGYIMMPN [LEF1_Y114_YF],1.02,0.433,1.47,1.53,1.39,0.401,0.934,0.534,0.421,3.33,0.562,0.603,0.4
1.03,0.681,0.657,IGRHAYGDQYR [IDH1_Y135],0.56,0.434,0.406,0.398,0.447,0.417,0.599,0.371,0.327,0.534,0.314,0.462,0.381
0.6,0.364,0.381,HAVVDYMRRQK [ATM_Y1915_L1910H],1.16,0.701,1.03,0.799,1,0.535,1.14,0.634,0.694,0.892,0.654,0.595,0.539
0.741,0.59,0.727,SLGKGYYDGGC [MC4R_Y35_S36Y],0.96,0.65,0.591,0.635,0.68,0.648,1.33,0.611,0.552,1.03,0.514,0.841,0.543
1.01,0.717,4.74,TLNHQYDFTFH [CSNK1A1_Y292_D297H_YF],1.02,0.759,0.624,0.557,0.785,0.685,1.17,0.588,0.559,0.738,0.557,0.735,0.58
0.656,0.777,0.476,IENKLCGMSDP [RET_Y1062_Y1062C],0.987,0.693,0.652,0.687,0.774,0.536,1.09,0.522,0.562,0.775,0.428,0.625,0.412
0.824,0.695,0.479,SVSVNYGDLVQ [GRAP_Y101_Q104L],0.745,0.516,0.557,0.565,0.633,0.54,0.855,0.506,0.476,0.728,0.42,0.61,0.419
0.649,0.556,0.453,DALDNYVIRGV [PCCA_Y473],0.849,0.512,0.583,0.486,0.506,0.481,0.842,0.457,0.46,0.846,0.408,0.633,0.504
0.977,1.06,0.473,VGSIEYLKREW [KCNMA1_Y885],0.823,0.35,0.487,0.523,0.612,0.447,0.967,0.359,0.511,0.927,0.38,0.488,0.446
0.797,0.723,0.404,YGLPRYRWLTH [TSPAN12_Y143],0.841,0.5,0.628,0.572,0.475,0.411,0.765,0.492,0.543,0.659,0.492,0.512,0.387
0.792,0.664,0.381,EKHGQYLIGHG [EPHB4_Y581_D576E],0.618,0.413,0.408,0.503,0.5,0.381,0.719,0.42,0.475,0.555,0.46,0.543,0.396
1.77,1.62,1.27,SIFKDYFRFNF [PLA2G2D_Y85_YF],1.18,0.523,0.537,3.99,2.58,0.428,1.19,0.495,0.481,2.8,0.579,0.821,0.643
